One block for each binder: values may come before it.
B2: MB109 protein (bioactive recombinant human BMP-9 expressed in E. coli and refolded; functional dimer) (ligand)
chain: MSAGAGSHCQKTSLRVNFEDIGWDSWIIAPKEYEAYECKGGCFFPLADDVTPTKHAIVQTLVHLKFPTKVGKACCVPTKLSPISVLYKDDMGVPTLKYHYEGMSVAECGCR
notes: also called purified MB109

Columns and labels:
[1] = molecular target: B2; assay: SPR (BIAcore 3000), ECD-Fc on CM5 chip, MB109 as analyte
Experimental: (§1) The receptor ECDs were purchased from R&D Systems (Minneapolis, USA) as C-terminal Fc-tagged chimera. The binding affinities were measured using a BIAcore 3000 (GE Healthcare, USA) following a protocol described previously by Allendorph et al. with minor modification (see, e.g., Allendorph et al., Plos One 6(11):e26402 (2011), and Allendorph et al., Proceedings of the National Academy of Sciences of the United States of America 103(20):7643-7648, 2006). In brief, the ECD-Fc proteins were prepared in a pH 4.0 solution and captured on flow cell 2, 3 and 4 of the CM5 sensor chip at a flow rate of 10 μL/min until the density researched ˜1,000 response units. Flow cell 1 was left blank for background subtraction. For kinetic analysis, purified MB109 was prepared in a series of 2-fold dilution in an assay solution (10 mM HEPES, pH 7.4, 150 mM NaCl, 3.4 mM EDTA and 0.005% Tween-20) and injected over the flow cells at a flow rate of […]. All tests were performed using a set of 2-fold diluted protein concentrations from 20 to 0.3 nM plus the assay solution as a blank. The data fitting was performed using a minimum of 4 concentrations and a global 1:1 Langmuir binding with mass transfer model.
(§2) To determine receptor binding specificity of MB109, purified MB109 was subjected to surface plasmon resonance analysis to determine its binding affinities to immobilized extracellular domains (ECDs) of Type I and Type II receptors, including ALK1, ActRIa (ALK2), ActRIb (ALK4), BMPRIa (ALK3), BMPRIb (ALK6), TGFβRI (ALK5), ALK7, ActRIIa, ActRIIb, BMPRII, TGF-βRII and MISRII. Among these receptor ECDs, MB109 had strong binding affinity only to ALK1, ActRIIb and BMPRII, while the binding to the other receptor ECDs were either very transient (to ActRIIa) or non-detectable (see TABLE 2).

[2] = molecular target: T1, ActRIIa ECD-Fc (human, UniProt P27037 20-135, limits assumed); assay: SPR (BIAcore 3000), ECD-Fc on CM5 chip, MB109 as analyte, global 1:1 Langmuir with mass transfer
T1 construct: extracellular domain; Bought from R&D Systems as C-terminal Fc-tagged chimera; not shown: C-terminal human IgG1 Fc tag
Experimental: as §1, §2

[3] = molecular target: T2, ActRIIb ECD-Fc (human, UniProt Q13705 19-137, limits assumed); assay: as above
T2 construct: extracellular domain; Bought from R&D Systems as C-terminal Fc-tagged chimera; not shown: C-terminal human IgG1 Fc tag
T2 sequence (looked up): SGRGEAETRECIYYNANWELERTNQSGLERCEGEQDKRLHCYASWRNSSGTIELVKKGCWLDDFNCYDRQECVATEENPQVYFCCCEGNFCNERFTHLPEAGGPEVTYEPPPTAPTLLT
Experimental: as §1, §2

[4] = molecular target: T3, BMPRII ECD-Fc (human, UniProt Q13873 27-150, limits assumed); assay: as above
T3 construct: extracellular domain; Bought from R&D Systems as C-terminal Fc-tagged chimera; not shown: C-terminal human IgG1 Fc tag
T3 sequence (looked up): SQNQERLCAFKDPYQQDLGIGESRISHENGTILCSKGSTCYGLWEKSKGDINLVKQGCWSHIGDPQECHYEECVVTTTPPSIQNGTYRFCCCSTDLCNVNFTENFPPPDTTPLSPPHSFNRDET
Experimental: as §1, §2

[5] = molecular target: T4, TGF-βRII ECD-Fc (human, UniProt P37173 23-166); assay: SPR (BIAcore 3000), ECD-Fc on CM5 chip, MB109 as analyte
T4 construct: extracellular domain; Bought from R&D Systems as C-terminal Fc-tagged chimera; not shown: C-terminal human IgG1 Fc tag
Experimental: as §1, §2

[6] = molecular target: T5, BMPRIb (ALK6) ECD-Fc (human, UniProt O00238 14-126); assay: as above
T5 construct: extracellular domain; Bought from R&D Systems as C-terminal Fc-tagged chimera; not shown: C-terminal human IgG1 Fc tag
T5 sequence (looked up): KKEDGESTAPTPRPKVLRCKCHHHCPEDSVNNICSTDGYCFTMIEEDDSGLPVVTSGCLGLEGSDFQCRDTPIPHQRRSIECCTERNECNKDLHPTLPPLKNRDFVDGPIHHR
Experimental: as §1, §2

[7] = molecular target: T6, MISRII ECD-Fc (human, UniProt Q16671 18-149, limits assumed); assay: as above
T6 construct: extracellular domain; Bought from R&D Systems as C-terminal Fc-tagged chimera; not shown: C-terminal human IgG1 Fc tag
Experimental: as §1, §2

[8] = molecular target: T7, BMPRIa (ALK3) ECD-Fc (human, UniProt P36894 24-152, limits assumed); assay: as above
T7 construct: extracellular domain; Bought from R&D Systems as C-terminal Fc-tagged chimera; not shown: C-terminal human IgG1 Fc tag
Experimental: as §1, §2

T1 sequence (P27037 20-135 limits assumed): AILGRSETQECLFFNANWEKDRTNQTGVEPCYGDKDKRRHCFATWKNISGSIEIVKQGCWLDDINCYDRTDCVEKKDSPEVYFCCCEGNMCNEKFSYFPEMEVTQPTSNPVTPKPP
T6 sequence (Q16671 18-149 limits assumed): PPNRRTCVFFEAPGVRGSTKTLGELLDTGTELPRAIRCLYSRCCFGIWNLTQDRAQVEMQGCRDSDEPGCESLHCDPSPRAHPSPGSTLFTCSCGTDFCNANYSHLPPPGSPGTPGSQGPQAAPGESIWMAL
T7 sequence (P36894 24-152 limits assumed): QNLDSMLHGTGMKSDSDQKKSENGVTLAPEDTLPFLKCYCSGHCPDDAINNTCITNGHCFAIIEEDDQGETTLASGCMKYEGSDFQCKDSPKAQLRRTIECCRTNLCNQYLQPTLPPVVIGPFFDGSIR
T4 sequence (P37173 23-166): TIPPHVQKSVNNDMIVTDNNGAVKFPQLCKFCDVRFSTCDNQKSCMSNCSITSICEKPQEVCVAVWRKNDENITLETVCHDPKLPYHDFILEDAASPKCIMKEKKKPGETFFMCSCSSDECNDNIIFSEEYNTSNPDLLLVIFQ

binding result [1]: no binding (tested: 20 to 0.3 nM)
B1: ALK7 ECD-Fc (Fc fusion, UniProt Q8NER5 22-113, looked up)
chain: LSPGLKCVCLLCDSSNFTCQTEGACWASVMLTNGKEQVIKSCVSLPELNAQVFCHSSNNVTKTECCFTDFCNNITLHLPTASPNAPKLGPME
notes: extracellular domain; Bought from R&D Systems as C-terminal Fc-tagged chimera; not shown: C-terminal human IgG1 Fc tag

Binder: B2
Kd [2]: 4.27 nM | koff [2]: 0.0121 s⁻¹ | kon [2]: 2.85e+06 M⁻¹ s⁻¹ | Kd [3]: 0.154 nM | koff [3]: 0.00152 s⁻¹ | kon [3]: 9.91e+06 M⁻¹ s⁻¹ | Kd [4]: 0.33 nM | koff [4]: 0.00153 s⁻¹ | kon [4]: 4.63e+06 M⁻¹ s⁻¹ | binding result [5]: no binding (tested: 20 to 0.3 nM) | binding result [6]: no binding (tested: 20 to 0.3 nM) | binding result [7]: no binding (tested: 20 to 0.3 nM) | binding result [8]: no binding (tested: 20 to 0.3 nM)

binding result [1]: no binding (tested: 20 to 0.3 nM)
B3: ActRIb (ALK4) ECD-Fc (Fc fusion, UniProt P36896 24-126, looked up)
chain: SGPRGVQALLCACTSCLQANYTCETDGACMVSIFNLDGMEHHVRTCIPKVELVPAGKPFYCLSSEDLRNTHCCYTDYCNRIDLRVPSGHLKEPEHPSMWGPVE
notes: as for B1

binding result [1]: no binding (tested: 20 to 0.3 nM)
B4: ActRIa (ALK2) ECD-Fc (Fc fusion, UniProt Q04771 21-123, looked up)
chain: MEDEKPKVNPKLYMCVCEGLSCGNEDHCEGQQCFSSLSINDGFHVYQKGCFQVYEQGKMTCKTPPSPGQAVECCQGDWCNRNITAQLPTKGKSFPGTQNFHLE
notes: as for B1

binding result [1]: no binding (tested: 20 to 0.3 nM)
B5: TGF-betaRI (ALK5) ECD-Fc (Fc fusion, UniProt P36897 34-126, looked up)
chain: LQCFCHLCTKDNFTCVTDGLCFVSVTETTDKVIHNSMCIAEIDLIPRDRPFVCAPSSKTGSVTTTYCCNQDHCNKIELPTTVKSSPGLGPVEL
notes: extracellular domain; Bought from R&D Systems as C-terminal Fc-tagged chimera; also called TGFβRI; not shown: C-terminal human IgG1 Fc tag
